The RNAGym collection of RNA variant scans (doi:10.1073/pnas.2313332121)

B1: TPR t1 (parent)
chain: GACCAAUCUGCCCUCAGAGCUCGAGAACAUCUUCGGAUGCAGAGGAGGCAGGCUUCGGUGGCGCGAUAGCGCCAACGUCCUCAACCUCCAAUGCAUCCCACCACAUGAUGAUGCCUGAAGAGCCUUGGUUUUUUG

Variants of: B1
Test: polymerase ribozyme fitness, log enrichment relative to wild type (log ratio); higher = more active; in vitro selection for triplet polymerase activity
Procedure, shortened: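 To select mutant libraries of each subunit of a heterodimeric triplet polymerase ribozyme, built by PCR and transcribed, each was annealed with a biotinylated primer, partner subunit and triplets, then incubated frozen at −7 °C. Extended constructs were gel-excised, captured on streptavidin beads and amplified by RT-PCR, in one round carried out in triplicate. Illumina sequencing of input and output libraries kept genotypes with ≥10 input reads and ≥1 read per output. Fitness is the base-2 logarithm of genotype enrichment relative to wild-type enrichment, from inverse-variance-weighted replicate averages.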

Row | Variant | polymerase ribozyme fitness (log ratio)
1 | GACCAAUCUGCACUCAGAGCUCGAGAACAUCUUCGGAUGUAGAGGAGGCAGGCUUCGGAGGCGCGAUAGCGCCAACGUCCUCAACCUCCAAUGCAUCCCACCACAUGAUGGUGCCUGAAGAGCAUUGGUUUUUUG [C12A C40U U59A A111G C124A] | -0.777
2 | GACCAAUCUGCCCUCAGAGCUCGAGAACACCUUCGGAUGCGGAGGAGGCAGGCUUCGGUGGCGCGAUAGCGCCAACGUCCUCAACCUCCAAUGCAUCCCACCACAUGAUGAUGCCUGAAGAGCCUUGGUUUUUUG [U30C A41G] | -3.33
3 | GACCAAUCUGCCCUCAGAGCUCGAGAACAUCUUCGGAUGCAGAGGAGGCAGGCUUCGGUGGCGCGAUAGCGCCAACGUCCUCAACCUUCAAUGCAUCCCACCACGUGAUGAUGCCUGAAGAGUCUUGGUUUUUUG [C88U A105G C123U] | -1.46
4 | GGCCAAUCUGCCCUCAGAGCUCGAGAACAUCUUCGGAUGCAGAGGAGGCAGGCUUAGGUGGCGCGAUAGCGCCAACGUCCUCAACCUCCAAUGCAUCCCACCACAUGAUGAUGCCUGAAGAGCCUUGGUUUUUUG [A2G C56A] | -0.384
5 | GACCAAUCUGCCCUCAGAGCUCGAGAACAUCUUCGGAUGCAGUGGAGGCAGGCUUCGGUGGCGCGAUAGCGCAAACGUCCUCAACCUCCAAUGCAUCCCACCACAUGAUGAUGCCUGAAGAGCCUUGGUUUUUUG [A43U C73A] | -1.5
6 | GACAAAUCUGCCCUCAGAGCUCGAGAACAUCUUCGGAUGCAGAGGAGGCAGGCUUCGGUGCCGCGAUAGCGCCAACGUCCUCAUCCUCCAAUGCAUCCCACCACAUGAUGAUGCCUGAAGAGCCUUGGUUUUUUG [C4A G61C A84U] | -4.45
7 | GACCAAUCUGCCCUCAGAGCUCGAGAACAUCUUCGGAUGCAGAGGAGGCAGGCUUCGGUGGCGCGAUAGCGCCAACGUCCUCAACCUCCAAUGCAUCCCACCACAUUAUGUUGCCUGAAGAGCCUUGGUUUUUUG [G107U A111U] | -4.03
8 | GACCAAUCUGCCCUCAGAGCUCUAGAACAUCUUCGGAUGCAGAGGAGGCAGGCUUCGGUGGCCCGAUAGCGCCAACGUCCUCAACCUCCAAUGCAUCCCACCACAUGAUGAUGCCUGAAGAGCCUUGGUUUUUUG [G23U G63C] | -6.19
9 | GACCAAACUGCCCUCAGAGCUCGAGAACAUCUUCGGAUGCAGAGGAGGCAGGCUUCGGUGGCGCGAUAGCGCCGACGUCCUCAACCUCCAAUGCAUCCCACCACAUGAUGAUGCCUGAAGAGCCUUGGUUUUUUG [U7A A74G] | -0.408
10 | GACCAAUCUGCCCUCAGAGCACGAGAACAUCUUCGGAUGCAGAGGAGGCAGGCUUCGGUUGCGCGAUAGCGCCAACGUCCUCAACCUCCGAUGCAUCCCACCACAUGAUGAUGCCUGAAGAGCCUUGGUUUUUUG [U21A G60U A90G] | 0.0218
11 | GACCAAUCUGCCCUCAGAGCUCGAGAACAUCUUCGCAUGCAGAGGAGGCAGGCUUCGGUGGCGCGAUAGCGCCAACGUCCUCAACCUCCAAUGCAUCCCACCAUAUGAUGAUGCCUGAAGAGCCUUGGUUUUUUG [G36C C104U] | -1.1
12 | GACGAAUCUGCCCUCAGAGCUCGAGAACAUCUUCGGAUGCAGAGGAGGCAGGCUUCGGUGCCGCGAUAGCGCCAACGUCCUGAACCUCCAAUGCAUCCCACCACAUGAUGAUGCCUGAAGAGUCUUGGUUUUUUG [C4G G61C C82G C123U] | -3.08
13 | GACCAAUGUGCCCUCAGAGCUCGAGAACAUCUUCGGAUGCAGAGGAGGCAGGCUUCGGUGGCGCGAUAGCGCGAACGUCCUCAACCUCCAAUGCAUCCCACCACAUGAUGAUGCCUGAAGAGCCUUGAUUUUUUG [C8G C73G G128A] | -1.19
14 | GACCAAUCUGUCCUCAGAGCUCGAGAACAUCUUCGGAUGCAGGGGAGGCAGGCUUCGGUGGCGCGAUAGCGGCAACGUCCUCAACCUCCAAUGCAUCCCACCACAUGAUGAUGCCUGAAGAGCCUUGGUUUUUUG [C11U A43G C72G] | -2.54
15 | GACCAAUCUGCCCUCAGAGCUCGAGAACAUCUUCGGAUGCAGAGUAGGCAGGCUUCGGUGUCGCGAUAGCGCCAACGUCCUCAACCUCCAAUGCAUCCCACCACAUGAUGAUGCCUUAAGAGACUUGGUUUUUUG [G45U G61U G117U C123A] | -2.94
16 | GACCAAUCUGCCCUCAGAGCUCGAGAACAUCUUCGGAUGCAGAGGAGGGAGGCUUCGGUGGCGCGAUACCGCCAACGCCCUCAACCUCCAAUGCAUCCCACCACAUGAUGAUGCCUGAAGAGCCUUGGUUUUUUG [C49G G69C U78C] | -2.8
17 | GACCAAUCUGCCCUCAGAGCUCGAGAACAUCUUCGGCUGCAGAGGAGGCAGGCUUCGGUGGCGCGAUAGCUCCAACGUCCUCAACCUCCAAUGCAUCCCAACACAUGAUGAUGCCUGAAGAGCCUUCGUUUUUUG [A37C G71U C101A G127C] | -2.36
18 | GACCAAUCUGCCCUCAGAGCUCGAGAAAAUCUUCGGAUGCAAAGGAGGCAGGCUUCGGUGGCGCGAUAGCGCCAACCUCCUCAACCUCCAAUGCAUCCCACCACAUGAUUAUGCCUGAAGAGCCUUGGUUUUUUG [C28A G42A G77C G110U] | -1.22
19 | GACCAAUCUGCCCUCAGAGCUCGAGAACAUCUUCGGAUGCAGAGGAGGCAGGCUUCGGUGGCGCGUUAGCGCCAACGUCCUCAUCCUCUAAUGCAUCCCACCACAUGAUGAGGCCUGAAGAGCCUUGGUUUUUUG [A66U A84U C89U U112G] | -2.3
20 | GACCAAUCUGCCCUCAGAGCUCGAGAACAUCUUCGGAUGCCGAGGAGGCAGGCUUCGGUGGCGCGAUAGCGUCGACGUCCUCAACCUCCAUUGCCUCCCACCACAUGAUGAUACCUGAAGAGCCUUGGUUUUUUG [A41C C72U A74G A91U A95C G113A] | -3.31
21 | GACCAAUCUGCCGUCAGAGCUCGAGAACAUCUUCGGAUGCAGAGGAGGCAGGCUUCGGUGGCGCGAUAGAGCCAACGUCCUCAACCUCCAAUGCAUCCCACCACAUGAUGAUGCCUGAAGAGCCUUGGUUUUUUG [C13G C70A] | -2.2

Row | Variant | polymerase ribozyme fitness (log ratio)
22 | GACCAAUCUGCCCUCAGAGCUCGAGAACAUCUUCGGAUGCAGAGCAGGCAGGCUUCGGUGGCGCGAUAGCGCCAACGUCCUCAACCUCCAAUGCAUCCCACCACAUGAUGAUGCCUGAAGAGCCUUGCUUUUUUG [G45C G128C] | -4.18
23 | GACCAAUCUGCCCUCAGAGCUCGAGAACAUUUUCGGAUGCAGACGAGGCAGGCUUCGGUGGCGCGAUAUCGCCAACGUCCUCAACCUCCAAUGCAUCCCACCACAUGAUGAUGCUUGAAGAGCCUUGGUAUUUUG [C31U G44C G69U C115U U130A] | -4.82
24 | GACCAAGCUGCCCUCCGAGCUCGAGAACAUCUUCGGAUGCAAAGGAGGCAGGCUUCGGUGGCGCGAUAGCGCCAACGUCCUCAACCUCCAAUGCAUCCCACCACAUGAUGAUGCCUGAAGAGCCUUGGUUUUUUG [U7G A16C G42A] | -4.17
25 | GACCAAUCUGCCCUCAGAGCUCGAGAACAUCUUCGGAUGCAGAGGAGGCAGGCUUCGGUGGCGCGAUAGCACCAACGUCCUCAACCUCCACUGCAUCCCACCACAUGAUGAUGUCUGAAGAGCCUUGGUUUUCUG [G71A A91C C114U U133C] | -2.15
26 | GACCAAUCUGCCCUCAGAGCUCGAGAACAUCUUCGGAUGGAGAGGAGGCAGGCUUCGGUGGCGCGAUAGCGCCAACGUCCUCAACCUCCAAUGCAUCCCACCACAUGAUGAUUUCUGAAGAGCCUUGGUUUUGUG [C40G G113U C114U U133G] | -2.25
27 | GACCAAUCUGCCCUCAGAGCUCGAGAACAUCUUCGGAUGCAGAGGAGGCAGGCUUCGGUGGCGCGAUAGCGUCAACGUCCUCAACCUCCAAUGCAUCACACCACAUGAUGAUGCCUGAAGAGCCUUGGUUUUUUG [C72U C98A] | -4.69
28 | GACCAAUCUGCCCCUAGAGCUCGAGAACAUCUUCGGAUGCAGAGGAGGCAGGCUUCGGUGGCGCGAUAGCGCGAACGUCCUCAACCUCCAAUGCAUCCCACCACAUGAUGAUGCCUGAAGAGCCUUGGUUUUUUG [U14C C15U C73G] | -3.76
29 | GACCAAUCUGCCCUCAGAGCUCGAGAACAUCUUCGGAUGCAGAGGAGGCAGGCUUCGGUGGCGCGAUAGCGCCAACGUCCUCAACCUCCACUGCAUCCCACCACAUGAUGAUGCCUGAAGAGCCUUCGUUUUUUG [A91C G127C] | -2.93
30 | GACCAAUCUGCCCUCAGAGCUCGAGAACAUCUUCGGAUGCAGAGGAGGCAGGCUUCGGUGUCGCGAUAGCGCCAACGUCCUCAACCUCCAAUGCAUCCCACCACAUGAUGAUGCCUGAAGAGCCGUGGUUUUUUG [G61U U125G] | -0.883
31 | GACCAAUCUGCCCUCAGAGCUCGAGAACAUCUUCGGAUGCAGAGGAGGCAGGCUUCGGUGUCGCGAUAGCGCCAACGUCCUCAACCUCCAAUGCAUCCCACCACAAGAUGAUGCCCGAAGAGCCUUGGUUUUUUG [G61U U106A U116C] | -0.163
32 | GACCAAUCUGCCCUCAGAGCUCGAGAACAUCUUCGGAUGCAGAGGAGGCAGGCUUCGGUGGCGCGAUAGUGCCAACGUCCUCAACCUCCAAUGGAUCCCACCACAUGAUGAUGCCUGAAGAGCCUUGGUUUUUUG [C70U C94G] | -0.729
33 | GACCAAUCUGCCCUCAGCGCUCGAGAACAUCUUCGGAUGCAGAGGAGGCAGGCUUCGGUCGCGCGAUAGCGCCAACGUCCUCAACCUCCAAUGCAUCCCACCACAUGAUGAUGCCUGAAGAGCCUUGGUUUUUUG [A18C G60C] | -2.9
34 | GACCAAUCUGCCCUCAGAGCUCGAGAACAUCUUCGGAUGCAGAGGAGGCAGGCUUCGGUGGCGCGAUAGCGCCAACGUCCUCAACCUCCAAUACAUCCCACCACAUGAUGAUGCCUGAAGAGCCUUGGUGUUUUG [G93A U130G] | -1.45
35 | GACCAAUCUGCCCUCAGAGCUCGAGAACAUCUUCGGAUGCAGAAGAGGCGGGCUUCGGUGGCGCGAUAGCGCUAACGUCCUCAACCUCCAAUGCAUCCCACAACAUGAUGAUGCGUGAAGAGCCUUGGUUUUUUG [G44A A50G C73U C102A C115G] | -5.62
36 | GACCAAUCUGCCCUCAGAGCUCGAGAACAUCUUCGGAUGCAGAGGAGGCAGGCUUCGGUGGCGGGAUAGCGCCAACGUCCUCAACCUCCAAUGCAUCCCACUACAUGAUGAUGCCUGAAGAGCUUUGGUUUUUUG [C64G C102U C124U] | -6.08
37 | GACCAAUCUGCCCUCAGAGCUCGAGAACAUCUUCGGAUGCAGAGGAGGCAGGCUUCGGUGGCGCGAUAGCGCCAACGUCCUCAACCUCCAACGCAUCCCACCACAUGAUGAUGCCUGAAGAGCCGUGGUUUUUUG [U92C U125G] | -1.76
38 | GACCAAUCUGCCCUCAGAGCUCGAGAACAUCUUCGGAUGCAGAGUAGGCAGGCUUCGGUGGCGCGAUAGCGACAACGUCCCCACCCUCCAAUGCAUCCCACCAUAUGAUUAUGCCUGAAGAGCCUUGGUUCUUUG [G45U C72A U81C A84C C104U G110U U131C] | -4.32
39 | GACCAAUCUGCCCUGAGAGCUCGAGAACAUCUUCGGAUGCAGAGGAGGCAGGCUUCGGUGGCGCGAUAGGGCCAACGUCCUCAACAUCCAAUGCAUCCCACCACAUGAUGAUGCCUGAAAAGCCUUGGUUUUUUG [C15G C70G C86A G120A] | -4.5
40 | GACCAUUCGGCCCUCAGAGCUCGAGAACAUCUUCGGAUGCAGAGGAGGCAGGCUUCGGUGGCACGAUAGCGCCAACGUCCUCAACCUCCAAUGCAUCCCACCAUAUGAUGAUGCUUUAAGAGCCUUGGUUUUUUG [A6U U9G G63A C104U C115U G117U] | -3.69
41 | GACCAAUCUGCCCUCAGAGCUCGAGAACAUCUUCGGAUGCAGAGGAGUCAGGCUGCGGUGGCGCGAUAACGCCAACGUCCUCAACCUCCAAUGCAUCCCACCACAUGAUGAUGCCUGAAGAGCCUUGGUUUUUUG [G48U U55G G69A] | -2.77
42 | GACCAAUCUGCCCUCAGAGCUCGAGAACAUCUUCGGAUGCAGAGGAGUCAGGCUUCGGUGGCGCGAUAGCGCCAACGUCCUCAGCCUCCAAUGCAUCCCACCACAUGAUGAUGCCCGAAGAGCCUUGGUUUUUUG [G48U A84G U116C] | -1.79
